Data as given in US20250353924A1 (CITY OF HOPE, published 2025).

T1: human CD84 on the cell surface (human, UniProt Q9UIB8 22-345)
T1 construct: whole, on cells; also called Cluster of Differentiation 84
T1 sequence (looked up): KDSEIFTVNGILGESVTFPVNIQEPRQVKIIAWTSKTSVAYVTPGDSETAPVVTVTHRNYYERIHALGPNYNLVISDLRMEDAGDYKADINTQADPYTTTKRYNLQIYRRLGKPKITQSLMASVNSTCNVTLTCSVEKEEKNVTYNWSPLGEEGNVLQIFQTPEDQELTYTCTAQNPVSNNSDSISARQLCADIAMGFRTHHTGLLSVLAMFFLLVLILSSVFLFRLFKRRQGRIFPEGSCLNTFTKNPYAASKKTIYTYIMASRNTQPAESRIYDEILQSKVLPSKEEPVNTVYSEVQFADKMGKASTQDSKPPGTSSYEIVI


Biological target: T1, human CD84 on the cell surface
Assay: flow cytometry, hybridoma supernatant on NS0 cells expressing human CD84
Method: Hybridoma clones selected from ELISA screening were subjected to flow cytometric analyses with NSO, a mouse myeloma cell line (ECACC), expressing human CD84 via lentiviral transduction. Half a million of transduced cells were incubated with 100 mL of hybridoma culture supernatants on ice for 30 min and washed with cold PBS containing 1% fetal bovine serum and 0.1% sodium azide.

Row | Molecule | Geometric Mean
1 | anti-CD84 hybridoma clone 4B11 (antibody, V domains shown) VH: EVKLVESGGGLVQPGGSLRLSCATSGFTFSDFYMDWVRQPPGKRLEWIATSRNKANDYTTEYSASVRGRFIVSRDTSQSILYLQMNALRAEDTAIYYCARDAVWEPFAYWGQGTLVTVSA VL: EIVLTQSPTTMAASPGEKITVTCSANSSISSNSLHWYQQKPGFSPKLLIYRTSNLASGVPARFSGSGSGTSYFLTIGTMEAEDVATYYCQQGTSIPRTFGGGTKLEIK | 1100
2 | anti-CD84 hybridoma clone 5C6 (antibody, V domains shown) VH: QVHLQQSGAELVRPGTSVKISCKASGYTFTNYWLGWVKQRPGHGLEWIGDIFPGGGYINYHEKFKGKATLTADTSSSTAYMQLSSLTSEDSAVYFCGYGNIAMDYWGQGTSVTVSS VL: QIILTQTPAIMSASPGEKVTMTCSASSSVSYVHWYQQKSGTSPKRWIYDTSKLASGVPARFSGSGSGTSYSLTISTMEAEDAATYYCQQWNNSPRTFGGGTKLEIK | 1690
3 | anti-CD84 hybridoma clone 7D2 (antibody, V domains shown) VH: QVHLQQSGAELVRPGTSVKISCKASGYTFTNYWLGWVKQRPGHGLEWIGDIFPGGGYINYHEKFKGKATLTADTSSSTAYMQLSSLTSEDSAVYFCAYGNVAMDYWGQGTSVTVSS VL: QIILTQTPAIMSASPGEKVTVTCSASSSVSYVHWYQQKSGTSPKRWIYDTSKLASGVPARFSGSGSGTSYSLTISTMEAEDAATYYCQQWNNSPRTFGGGTKLEIK | 2260

Next, values leading:

Row | Geometric Mean | Molecule
4 | 1550 | anti-CD84 hybridoma clone 2H7 (antibody, V domains shown) VH: DVQLQESGPGLVKPSQSLSLTCTVTGYSITSDYAWNWIRQFPGNKLEWMGYISYSGTTSYNPSLKSRISITRDTSKNQFFLQLNSVTTEDTATYYCASLHYYGSRYKKLYAMDYWGQGTLATVSS VL: NIVMTQSPKSMSMSVGERVTLSCKASDNVGTYVSWYQQKPEQSPKLLIYGASNRYTGVPDRFTGSGSATDFTLTISSVQAEDLADYHCGQSYSYPTFGGGTKLEIK
5 | 1810 | anti-CD84 hybridoma clone 8A5 (antibody, V domains shown) VH: QIQLVQSGPELKKPGETVKISCKASGYTFTTYSMHWVKQAPGKGLKWMGWIDTATGEPTYADDFKGRFAFSLETSASTAYLQINNLNNDDTATYFCVKSAYWYFDVWGAGTTVTVSS VL: DVLMTQTPLSLPVSLGDQASISCRSSQSIVHINGNTYLEWYLQKPGQSPKLLIYKVSNRFSGVPDRFSGSGSGTDFTLKISRVEAEDLGVYYCFQGSHVPWTFGGGTKLEIK
6 | 2120 | anti-CD84 hybridoma clone 13D11 (antibody, V domains shown) VH: QVTLKESGPGLLQPSQTLSLTCSFSGFSLNTSNMGVGWIRQPSGKDLEWLAHIWWDDVKRYNPALKSRLTISKDTSNNQVFLKIASVDTADTATYYCARMRGDYTMDYWGQGTSVTVSS VL: DIVLTQSPASLAVSLGQRATLSCRASQSVSTSLYSYMHWYQQKPGQPPKLLIKYASDLESGVPARFSGSGSGTDFTLHIHPVEEEDTATYYCQHSWEIPYTFGGGTKLEIK

Biological target: T1, human CD84 on the cell surface
Assay: flow cytometry, control on NS0 cells expressing human CD84

Row | Geometric Mean | Molecule
7 | 88 | Ctrl
